Test results reported in US20020061552A1 (published 2002).

T1: Myc-tagged mNkd protein, in vitro translated (mouse, UniProt Q99MH6 1-471, labelled with 35S-methionine)
T1 construct: Made with the TNT coupled reticulocyte lysate system in the presence of 35S-methionine; also called Myc-mNkd; 35S-mNkd; not shown: Myc tag
T1 sequence: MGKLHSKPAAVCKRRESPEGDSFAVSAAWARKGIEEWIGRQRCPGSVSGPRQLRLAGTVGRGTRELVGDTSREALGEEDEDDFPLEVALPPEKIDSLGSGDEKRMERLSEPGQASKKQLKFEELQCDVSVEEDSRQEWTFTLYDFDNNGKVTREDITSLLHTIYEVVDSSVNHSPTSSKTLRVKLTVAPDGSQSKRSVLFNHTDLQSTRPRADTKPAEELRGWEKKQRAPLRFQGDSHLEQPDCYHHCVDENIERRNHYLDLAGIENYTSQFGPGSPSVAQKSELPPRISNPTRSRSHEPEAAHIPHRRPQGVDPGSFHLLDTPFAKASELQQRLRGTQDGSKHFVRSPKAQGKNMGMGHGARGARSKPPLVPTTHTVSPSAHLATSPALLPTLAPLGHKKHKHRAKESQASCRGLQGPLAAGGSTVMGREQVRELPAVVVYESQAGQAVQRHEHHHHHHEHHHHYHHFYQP

B1: GST fusion of the PDZ domain of Drosophila Dvl (other, UniProt P51140 252-324, looked up)
chain: TVSINMEAVNFLGISIVGQSNRGGDGGIYVGSIMKGGAVALDGRIEPGDMILQVNDVNFENMTNDEAVRVLRE
notes: domain: PDZ; also called PDZ domain alone; not shown: glutathione-S-transferase (GST)

Experiments:
[1] = target: endogenous Dvl of HEK293 cells; experiment: cell-based or functional assay
[2] = target: T1, Myc-tagged mNkd protein, in vitro …; experiment: GST pull-down, electrophoresis and autoradiography
Description: The immunocomplexes were subjected to electrophoresis and autoradiography.

Molecule	inhibition of the activation of the LEF-1 luciferase reporter by Wnt in HEK 293 cells [1]	binding result [2]
Xpress tagged mNkd (from UniProt Q99MH6 1-471)	75%	–
B1	–	no binding
